Reference: patent US9260728B2, “Terpene synthases from Santalum” (UNIVERSITY OF BRITISH COLUMBIA, priority 2009, dated 2016)

What was measured:
Assay type in all cases: biochemical
[1] = SaSSy enzyme assay with FPP, GC-MS product analysis
Procedure: Enzyme assays for both recombinant isoenzyme proteins P143 and S143 were done in duplicate using GC vials as per O'Maille, P. E., et al. (“A single-vial analytical and quantitative gas chromatography-mass spectrometry assay for terpene synthases,” Anal. Biochem. 335:210-217 (2004)). For each assay, 20 μL of protein (8 mg/mL) was added to 450 μL of reaction buffer containing 25 mM HEPES, 10% glycerol, 5 mM DTT and 10 mM of Mg^2+. 20 μL of substrates FPP and GPP (˜1 mg/mL) were added and the mixture gently shaken. Final enzyme concentration was 0.3 mg/mL. Vials were overlaid with 500 μL of pentane to trap volatile products and incubated at 30° C. for 2 h.
(§1) The product mixture of the SaSSy enzyme was analysed on an Agilent 6890 GC with a 5973 MSD using helium as carrier gas. Peak identification was done using an HP5-MS capillary column (30 m, 0.25 mm ID, […]). Injector temperature was 240° C., detector temperature was set at 250° C., injection volume was 1 μL and column flow rate was 1 mL/min. Oven temperature program was as follows: oven program was held for 1 min at 40° C., then ramped at 7.5° C./min to 250° C. and held. All mass spectra were detected at 70 eV in multiple ion scan mode.
The identities of products from SaSSy incubations were confirmed by comparison of mass spectra retention times to authentic sandalwood oil in the NIST 2005 library, see publications by Adams, R. P. (“Identification of essential oil components by gas chromatography/mass spectrometry,” Allured Publishing Corporation, Carol Stream, Ill. (1995)) and MassFinder (www.massfinder.com).
The mass spectrum of the four compounds produced by the SaSSy enzyme (shown in FIG. 2A) are the same as those of natural β-santalene produced in sandalwood trees (see Adams (1995), cited above, for comparison profiles).

[2] = SaSSy enzyme assay with GPP, GC-MS product analysis; conditions: GPP as substrate, Mn^2+
Procedure: Enzyme assays for both recombinant isoenzyme proteins P143 and S143 were done in duplicate using GC vials as per O'Maille, P. E., et al. (“A single-vial analytical and quantitative gas chromatography-mass spectrometry assay for terpene synthases,” Anal. Biochem. 335:210-217 (2004)). […] 20 μL of substrates FPP and GPP (˜1 mg/mL) were added and the mixture gently shaken. Final enzyme concentration was 0.3 mg/mL. Vials were overlaid with 500 μL of pentane to trap volatile products and incubated at 30° C. for 2 h.
as §1, with “mode. […]” for “mode.”

[3] = GC-FID determination of reaction products of terpene synthases from FPP with magnesium or manganese
Procedure: Enzyme assays for all recombinant proteins were done in triplicate using the GC vial method described by O'Maille et al. (Anal. Biochem. 335:[…] (2004). For enzyme assays where only product identification was needed, 10 μg of protein was used in a final volume of 500 μL of reaction buffer (25 mM HEPES, 10% glycerol, 5 mM DTT and 10 mM of either Mg^2+ or Mn^2+. Substrates (FPP and GPP) were added to a final reaction concentration of 100 μM. Vials were overlaid with 500 μL of hexane to trap volatile products and incubated at 30° C. for 2 h. Mixtures were vortexed for 1 min to extract all volatiles and the vials were centrifuged to separate the organic layer.
Product mixtures were analysed by GC-MS in scan mode for product identification. A standard containing the three santalenes and α-trans-bergamotene was prepared by flash chromatography of 2 mL of neat S. album oil over silica and eluted in hexane. A final yield of 25 mg was resuspended in EtOAc and purity was confirmed by GC-FID with conditions described below. All mass spectra were compared to the NIST 2005 library and the literature. Retention indices were determined for all compounds using an n-alkane standard and compared to the literature (R. P. Adams, “Identification of essential oil components by gas chromatography/mass spectrometry,” Allured Publishing Corporation, Carol Stream, Ill. (1995)).
(§2) GC-FID was performed on a Shimadzu GC2010 with a 30 m 0.25 mm ID, 0.25 μm film DB-WAX column with He as the carrier gas. Splitless injection (2 μL) was used for all analyses. Conditions were as follows: injector 200° C., detector 250° C., column flow rate 1 mL/min. Oven program: 40° C. for 3 min, then 8° C./min to 180° C., held 5 min, then 10° C./min to 220° C., held 10 min. Needle height was adjusted to only draw from the upper organic layer of all sample vials. GC-MS was performed on a Shimadzu GC2010 with the same DB-WAX column and using He as the carrier gas. Conditions were as follows: injector 200° C., MS interface 240° C., ion source 200° C. Oven program: 40° C. for 3 min, then 8° C./min to 180° C., held 5 min, then 10° C./min to 220° C., held 10 min. Solvent cut time was set to 5 min. For product identification, total ion monitoring was used, scanning from m/z 45 to m/z 300. For kinetic assays, single ion monitoring of the sesquiterpene base ions m/z 91, 93 and 94 were used. Likewise monoterpene base ions (m/z 69, 71 and 93) were monitored. An internal standard (isobutyl benzene, 30 μM) was added to the hexane used to overlay each reaction. Detector response factors were calculated based on the santalene standard prepared earlier and used to determine the product concentrations for kinetic analysis.

[4] = Steady-state enzyme kinetic assays
Procedure: For determination of steady-state enzyme kinetic constants, conditions were as described previously except the enzyme concentration was kept at 10 nM. Substrate concentrations ranged from 1 uM to 100 uM, and reactions were incubated at 30° C. for exactly 5 mins. Reactions were quenched by the addition of 500 μL 0.5 M EDTA, pH 8.0 and vortexed as above.
as §2

[5] = GC-FID determination of reaction products of terpene synthases from FPP with magnesium or manganese; remark: listed apart in the source

epi-β-santalene in product mixture ([1]; FPP, Mg^2+ buffer): 4.3% | α-santalene in product mixture ([1]; FPP, Mg^2+ buffer): 34.7% | α-trans-bergamotene in product mixture ([1]; FPP, Mg^2+ buffer): 11.1% | β-santalene in product mixture ([1]; FPP, Mg^2+ buffer): 41.3% | Relative % composition in oil produced by enzyme: E-α-bergamotol ([1]; four major components only): 12.1% | Relative % composition in oil produced by enzyme: epi-β-santalol ([1]; four major components only): 4.7% | Relative % composition in oil produced by enzyme: α-santalol ([1]; four major components only): 38.0% | Relative % composition in oil produced by enzyme: β-santalol ([1]; four major components only): 45.2% | Relative % composition in oil produced by enzyme: E-α-bergamotol ([3]; GC-FID): 16.0% | Relative % composition in oil produced by enzyme: β-santalol ([3]; GC-FID): 31.5% | Relative % composition in oil produced by enzyme: epi-β-santalol [5]: 4.7% | Relative % composition in oil produced by enzyme: α-santalol [5]: 45.3%
B1: SaSSy: santalene synthase (terpene synthase) from Santalum album, gene SEQ ID NO:1, protein SEQ ID NO:2 (protein, listed as Santalum album)
chain: MDSSTATAMTAPFIDPTDHVNLKTDTDASENRRMGNYKPSIWNYDFLQSLATHHNIVEERHLKLAEKLKGQVKFMFGAPMEPLAKLELVDVVQRLGLNHLFETEIKEALFSIYKDGSNGWWFGHLHATSLRFRLLRQCGLFIPQDVFKTFQNKTGEFDMKLCDNVKGLLSLYEASYLGWKGENILDEAKAFTTKCLKSAWENISEKWLAKRVKHALALPLHWRVPRIEARWFIEAYEQEANMNPTLLKLAKLDFNMVQSIHQKEIGELARWWVTTGLDKLAFARNNLLQSYMWSCAIASDPKFKLARETIVEIGSVLTVVDDGYDVYGSIDELDLYTSSVERWSCVEIDKLPNTLKLIFMSMFNKTNEVGLRVQHERGYNSIPTFIKAWVEQCKSYQKEARWFHGGHTPPLEEYSLNGLVSIGFPLLLITGYVAIAENEAALDKVHPLPDLLHYSSLLSRLINDIGTSPDEMARGDNLKSIHCYMNETGASEEVAREHIKGVIEENWKILNQCCFDQSQFQEPFITFNLNSVRGSHFFYEFGDGFGVTDSWTKVDMKSVLIDPIPLGEE
modifications: SaSSy Protein
products formed [2]: a mixture of α-pinene, camphene, limonene and α-terpinolene, along with other monoterpene products | E-β-farnesene among reaction products (GC-FID) ([3]; FPP Mg, mean): 1.7 | Z-β-farnesene among reaction products (GC-FID) ([3]; FPP Mg, mean): 0.8 | epi-β-santalene among reaction products (GC-FID) ([3]; FPP Mg, mean): 4.7 | α-E-bergamotene among reaction products (GC-FID) ([3]; FPP Mg, mean): 16.0 | α-santalene among reaction products (GC-FID) ([3]; FPP Mg, mean): 45.3 | β-santalene among reaction products (GC-FID) ([3]; FPP Mg, mean): 31.5 | E-β-farnesene among reaction products (GC-FID) ([3]; FPP Mg, replicate 1): 1.7 | Z-β-farnesene among reaction products (GC-FID) ([3]; FPP Mg, replicate 1): 0.7 | epi-β-santalene among reaction products (GC-FID) ([3]; FPP Mg, replicate 1): 4.6 | α-E-bergamotene among reaction products (GC-FID) ([3]; FPP Mg, replicate 1): 16.3 | α-santalene among reaction products (GC-FID) ([3]; FPP Mg, replicate 1): 46.4 | β-santalene among reaction products (GC-FID) ([3]; FPP Mg, replicate 1): 30.4 | E-β-farnesene among reaction products (GC-FID) ([3]; FPP Mg, replicate 2): 1.7 | Z-β-farnesene among reaction products (GC-FID) ([3]; FPP Mg, replicate 2): 1.0 | epi-β-santalene among reaction products (GC-FID) ([3]; FPP Mg, replicate 2): 5.1 | α-E-bergamotene among reaction products (GC-FID) ([3]; FPP Mg, replicate 2): 15.3 | α-santalene among reaction products (GC-FID) ([3]; FPP Mg, replicate 2): 43.8 | β-santalene among reaction products (GC-FID) ([3]; FPP Mg, replicate 2): 33.1 | E-β-farnesene among reaction products (GC-FID) ([3]; FPP Mg, replicate 3): 1.7 | Z-β-farnesene among reaction products (GC-FID) ([3]; FPP Mg, replicate 3): 0.7 | epi-β-santalene among reaction products (GC-FID) ([3]; FPP Mg, replicate 3): 4.3 | α-E-bergamotene among reaction products (GC-FID) ([3]; FPP Mg, replicate 3): 16.4 | α-santalene among reaction products (GC-FID) ([3]; FPP Mg, replicate 3): 45.6 | β-santalene among reaction products (GC-FID) ([3]; FPP Mg, replicate 3): 31.2 | E-β-farnesene among reaction products (GC-FID) ([3]; FPP Mn, mean): 7.6 | Z-β-farnesene among reaction products (GC-FID) ([3]; FPP Mn, mean): 0.5 | epi-β-santalene among reaction products (GC-FID) ([3]; FPP Mn, mean): 0.7 | α-E-bergamotene among reaction products (GC-FID) ([3]; FPP Mn, mean): 74.7 | α-santalene among reaction products (GC-FID) ([3]; FPP Mn, mean): 9.8 | β-santalene among reaction products (GC-FID) ([3]; FPP Mn, mean): 6.6 | E-β-farnesene among reaction products (GC-FID) ([3]; FPP Mn, replicate 1): 7.4 | Z-β-farnesene among reaction products (GC-FID) ([3]; FPP Mn, replicate 1): 0.6 | epi-β-santalene among reaction products (GC-FID) ([3]; FPP Mn, replicate 1): 0.9 | α-E-bergamotene among reaction products (GC-FID) ([3]; FPP Mn, replicate 1): 75.7 | α-santalene among reaction products (GC-FID) ([3]; FPP Mn, replicate 1): 9.5 | β-santalene among reaction products (GC-FID) ([3]; FPP Mn, replicate 1): 6.0 | E-β-farnesene among reaction products (GC-FID) ([3]; FPP Mn, replicate 2): 8.0 | Z-β-farnesene among reaction products (GC-FID) ([3]; FPP Mn, replicate 2): 0.5 | epi-β-santalene among reaction products (GC-FID) ([3]; FPP Mn, replicate 2): 0.8 | α-E-bergamotene among reaction products (GC-FID) ([3]; FPP Mn, replicate 2): 73.4 | α-santalene among reaction products (GC-FID) ([3]; FPP Mn, replicate 2): 9.9 | β-santalene among reaction products (GC-FID) ([3]; FPP Mn, replicate 2): 7.3 | E-β-farnesene among reaction products (GC-FID) ([3]; FPP Mn, replicate 3): 7.5 | Z-β-farnesene among reaction products (GC-FID) ([3]; FPP Mn, replicate 3): 0.5 | epi-β-santalene among reaction products (GC-FID) ([3]; FPP Mn, replicate 3): 0.5 | α-E-bergamotene among reaction products (GC-FID) ([3]; FPP Mn, replicate 3): 74.9 | α-santalene among reaction products (GC-FID) ([3]; FPP Mn, replicate 3): 10.1 | β-santalene among reaction products (GC-FID) ([3]; FPP Mn, replicate 3): 6.4 | Kcat ([4]; FPP): 0.0112 s⁻¹ | Vmax ([4]; assays using FPP): 0.42 µM/min
